Laboratory results taken from patent US20240240209A1, “SYNTHESIS OF ENANTIOPURE CIS-A-IRONE FROM A RENEWABLE CARBON SOURCE” (Agency for Science, Technology and Research, priority 2021, published 2024).
Several values for one entry are separate records, joined by “and”; a condition that tells them apart may be missing. Equal entries are not always repeated.

What was measured:
[1] = Steady-state kinetics of purified pMT enzyme, substrate psi-ionone; type: biochemical; settings: pMT10 vs pMT7 (Table 3)
Protocol: The steady-state kinetic parameters of pMT7 were determined (Table 3). […] While determining the steady-state kinetics of pMT7, it was noticed that the reaction with purified pMT7 stopped at 6 h before significant conversion had taken place (FIG. 15a). Moreover, while using cell extracts containing pMT7, the reaction reached a plateau after 1-day incubation (FIG. 15b). […] Since pMT7 is an hexamer in solution^10, its oligomeric state before and after the reaction was examined. […] (28 C) overnight as compared to 4° C. […] It was further tested if the enzyme was subject to feedback inhibition, as the cofactor product SAH is a potent inhibitor of methyltransferases^12.
To determine the purified enzyme kinetics and in vivo production, the reaction mixture was extracted with 0.5× or 1× volume of ethyl acetate and the organic phase was diluted appropriately before subjected to GCMS analysis. The samples were analyzed on an Agilent Intuvo 9000 GC system equipped with Agilent DB-WAX Ultra Inert Intuvo GC column (30 m×250 μm×0.25 μm) and Agilent 5977B mass spectrometry with high efficiency source. 1 μl organic phase was injected at the split ratio 10:1 at 250° C. […] The concentration of psi-ionone and irone were calculated by interpolating with a standard curve prepared by synthetic standards.

[2] = Fed-batch production of cis-α-irone in 5 L bioreactor; type: cell-based, Escherichia coli; settings: 10% DO, another 24 h after feeding stopped
Protocol: FIGS. 5a and 5b show the time-course profiles of OD600, cis-α-irone, β-irone and psi-ionone titers when DO was controlled at 2% and 10% respectively.
Lastly, a single-phase fed-batch process was tested in a 5 L bioreactor. Even though 2O31 ΔmetJ strain produced a higher titer of cis-α-irone, its growth seemed to be impeded during fermentation. Thus, 2O31-pMT10 strain was tested. The optimized bioprocess for α-ionone was applied^8, in which the glucose feeding rate was set at 10 g/h and the glucose concentration was kept between 0-5 g/L. Two different dissolved oxygen (DO) levels were tested: 2% and 10%. Under these DO settings, evaporation was kept at minimum which is <0.05%. […] Subsequently, cis-α-irone production became faster at 2% DO than 10% DO. At 113 h, when glucose feeding was stopped, approximately 109 mg/L and 106 mg/L cis-α-irone were produced at 2% and 10% DO respectively. By continuing incubating the cultures for another 24 h, a final titer of approximately 153 mg/L and 172 mg/L cis-α-irone were produced at 2% and 10% DO respectively. Simultaneously, a decrease in psi-ionone concentration was observed during the last 24 h, indicating psi-ionone was converted to cis-α-irone. Other DO levels may also be used, for example 15%. […]

[3] = In vitro biotransformation of psi-ionone to cis-α-irone by cell lysate containing overexpressed pMT10; type: biochemical; settings: 28° C., 3 days
Protocol: (§1) All the purified enzyme reactions were done in triplicates.
With the positive effect of mtaD, in vitro biotransformation by using cell lysate containing overexpressed pMT10 and mtaD was explored. To challenge the enzyme, 10 mg/L (0.05 mM), 100 mg/L (0.5 mM) or 1000 mg/L (5 mM) of psi-ionone was supplemented into the reaction, and 6.4 mg/L (˜0.03 mM), 54 mg/L (˜0.26 mM) and 182 mg/L (˜0.88 mM) of cis-α-irone were produced, respectively after incubating the reaction at 28° C. for 3 days (FIG. 3d).

[4] = Purified pMT7/pMT10 reaction with auxiliary enzymes mtn and mtaD; type: biochemical; settings: for cis-α-irone amount relative to pMT7 reaction alone: purified enzyme
Source text: as §1
An alternative strategy to reduce SAH inhibition is to introduce auxiliary enzymes that degrade SAH12 (FIG. 18a). […] Noteworthy, with mtaD enzyme, cis-α-irone production by pMT10 was improved by ˜2.5 fold as compared to pMT10 reaction alone (FIG. 3c). […] This somewhat agrees with the effect of mutating D135, which abolishes the hydrogen bond interaction between pMT7 and the amine group of the adenine moiety.

B1: pMT10: pMT1 with Y200F S182E L273V L180A A202L Y65F C156A T91P (protein)
chain: MPQEARTPQQQVTADEVGDWYDKFGEVYHLTLGESVHCGLWFPPDAPVPQDMELVTMSSQAQDRFTDYLIETLDPKAGQHLLDIGCGTGRPALKAARQRGIAVTGVAVSKEQIAAANRLAAGHGLTERLTFEVADAMRLPYEDESFDCAWAIESLAHMDRAKALGEAWRVLKPGGDLLVAEEVVTEELTEPETALFETLFALNVPPRLGEFFDIVSGAGFHTLSLKDLSANLAMTMNVFALGVYSRRAEFTERFGAEFVDGLLAGLGSAQETVIRKTRFFMATLRKPAV
modifications: Modified from pMT1
notes: pMT1 with Y200F S182E L273V L180A A202L Y65F C156A T91P
[1]
  improvement of catalytic efficiency: 10 fold
[2]
  final titer of cis-α-irone: ~172 mg/L
[3]; 10 mg/L (0.05 mM) psi-ionone
  cis-α-irone produced: 6.4 mg/L and ~0.03 mM
[3]; 100 mg/L (0.5 mM) psi-ionone
  cis-α-irone produced: 54 mg/L and ~0.26 mM
[4]; as compared to pMT10 reaction alone
  cis-α-irone production improvement with mtaD enzyme: ~2.5 fold
[4]; with mtaD
  cis-α-irone amount relative to pMT7 reaction alone: ~6.5 fold
[4]; without mtaD
  cis-α-irone amount relative to pMT7 reaction alone: ~4.5 fold
